The results in this text go back to patent US20170015742A1 (published 2017).

One may read the Kd as a measure of binding affinity in units of concentration. One may read the koff as the first-order rate constant of dissociation. One may read the kon as a measure of how fast the partners come together.

Substitutions are numbered along the chain they refer to. Names and notes keep the numbering of the source.

Assay [1] deals with recombinant human PDGF-BB (human, UniProt P01127 82-190). Kind of assay: cell-based or functional assay.
recombinant human PDGF-BB, sequence (P01127 82-190 limits assumed): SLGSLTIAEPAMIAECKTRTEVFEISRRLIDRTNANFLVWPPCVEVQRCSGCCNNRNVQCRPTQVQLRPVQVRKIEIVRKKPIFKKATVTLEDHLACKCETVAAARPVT
Assay [2] addresses recombinant human VEGF165 (human, UniProt P15692 207-395). As to the kind of experiment: cell-based or functional assay.
The next assay deals with T1, Recombinant rat FcRn (rat, UniProt P13599 23-298, limits assumed).
T1 construct: FcRn is normally a heterodimer with beta-2-microglobulin
T1 sequence (looked up) 1: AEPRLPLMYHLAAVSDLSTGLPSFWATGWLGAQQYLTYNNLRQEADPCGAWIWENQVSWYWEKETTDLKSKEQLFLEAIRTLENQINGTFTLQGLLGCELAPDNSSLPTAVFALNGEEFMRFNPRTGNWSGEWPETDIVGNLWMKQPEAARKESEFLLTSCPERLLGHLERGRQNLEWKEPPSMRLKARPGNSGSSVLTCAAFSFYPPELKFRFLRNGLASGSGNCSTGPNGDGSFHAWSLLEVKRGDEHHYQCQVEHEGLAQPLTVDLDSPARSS
T1 sequence (looked up) 2: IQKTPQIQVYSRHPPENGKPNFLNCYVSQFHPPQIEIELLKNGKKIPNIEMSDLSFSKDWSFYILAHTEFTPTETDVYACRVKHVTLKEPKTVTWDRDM
Kind of assay: Biacore SPR; DVD-Ig immobilised by amine coupling, recombinant FcRn injected; 1:1 binding fit. The procedure:
Human, cynomolgus, mouse, rat and rabbit recombinant FcRns were injected over all the flow cells at a flow rate of 50 μL/minute for 1 minute at a concentrations range of from 2.7 to 6000 nM (three fold serial dilution), followed by a 2 minute dissociation time. The surfaces were regenerated with an injection of 10 mM HCl at 100 μL/minute for 2 seconds followed by an injection of HBS-EP+, pH 7.4, at a flow rate of 50 μL/minute for 30 seconds over all four flow cells. Samples were prepared and run in two running buffer systems, pH 6.0 MES-EP+, and pH […]. Recombinant human FcγRIIIa V158 and rat and mouse FcRn data were fitted to 1:1 kinetic model. Recombinant human FcγRIIa R131 and FcγRIIa H131, FcγRIIIa F158, and recombinant human, cynomolgus and rabbit FcRn binding data were fitted to a steady state affinity model. Biacore T200 Evaluation Software version 2.0 was used to fit all the data.
Background: In SPR one partner is held on a chip, and binding of the other changes the refractive index at the surface.

For the next assay, the target named is T2, Rat PDGF-BB (rat, UniProt Q05028 74-182).
T2 construct: Homodimer of B chains
T2 sequence (Q05028 74-182 limits assumed): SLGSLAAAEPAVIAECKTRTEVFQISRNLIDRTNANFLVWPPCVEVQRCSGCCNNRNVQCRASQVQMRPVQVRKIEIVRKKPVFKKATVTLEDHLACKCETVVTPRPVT
Kind of assay: affinity KD as tabulated in Table 69; method not given.

For the next assay, the target named is T3, Rabbit PDGF-BB (rabbit, UniProt Q05028 74-182 (rat entry)).
T3 construct: also called rab PDGF
T3 sequence (Q05028 74-182 limits assumed): as above
Described as above.

For another assay, the target named is T4, Cynomolgus monkey VEGF-A (cynomolgus monkey, UniProt P15692 207-395 (human entry)).
T4 construct: also called cyno VEGF
T4 sequence (P15692 other isoform, or with tags, fused parts or gaps limits assumed): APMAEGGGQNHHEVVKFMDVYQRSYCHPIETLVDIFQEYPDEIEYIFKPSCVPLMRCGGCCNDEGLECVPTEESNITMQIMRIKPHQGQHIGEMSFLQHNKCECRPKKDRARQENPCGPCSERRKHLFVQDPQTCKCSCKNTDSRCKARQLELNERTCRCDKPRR
Described as above.

Assay [3] deals with T5, Cynomolgus monkey PDGF-BB (cynomolgus monkey, UniProt P01127 82-190 (human entry), limits assumed).
T5 construct: Homodimer of B chains; also called cyno PDGF; cynoPDGF-BB
T5 chain: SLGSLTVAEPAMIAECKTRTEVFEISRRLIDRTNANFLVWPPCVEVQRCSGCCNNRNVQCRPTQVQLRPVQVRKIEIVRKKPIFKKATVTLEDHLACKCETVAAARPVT
The assay is described as above.

The target in a further assay is T6, Mouse PDGF-BB (mouse, UniProt P31240 82-190).
T6 construct: Homodimer of B chains; also called mo PDGF; mPDGF-BB
T6 sequence (P31240 82-190 limits assumed): as the sequence (Q05028 74-182 limits assumed) above, with V83I, V102I counted along it
Described as above.

The target of assay [4] is T7, Recombinant human FcγRIIIa V158, 6xHis-tagged (human, UniProt P08637 17-208, limits assumed).
T7 construct: Captured through its 6xHis tag; also called huFcRIIIa 158V
T7 sequence (P08637 other isoform, or with tags, fused parts or gaps limits assumed): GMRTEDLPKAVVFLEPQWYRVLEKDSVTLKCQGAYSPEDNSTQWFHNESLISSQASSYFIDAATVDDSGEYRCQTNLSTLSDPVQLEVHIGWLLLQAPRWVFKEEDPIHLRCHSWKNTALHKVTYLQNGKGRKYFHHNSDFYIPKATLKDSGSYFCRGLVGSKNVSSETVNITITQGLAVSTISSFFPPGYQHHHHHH
Kind of assay: Biacore SPR; His-tagged huFcγRIIIa 158V captured on anti-6xHis antibody, DVD-Ig injected; steady state fit. The method, then: (§1) A CM5 chip (GE Healthcare, Pittsburgh, Pa.) with mouse anti-6×His antibodies (“6×His” disclosed as SEQ ID NO: 405) that were directly immobilized on the chip via amine coupling according to the GE Healthcare protocol to the density of 10000RU (all flow cells) was used for experiments. Human FcγRs were captured on flow cells 2, 3 and 4. Flow cell 1 was used as a reference surface. HBS-EP+ was used as the running buffer. […] The chip surfaces were regenerated with an injection of 10 mM glycine pH 1.5 at a flow rate of 100 μL/minute over all four flow cells after each cycle.
The binding of DVD-Ig molecules to FcRn from various species and the binding of DVD-Ig molecules to various FcγRs were characterized by Biacore using the method described in Example 1.2.

For assay [5], the target named is T8, Recombinant human FcγRIIa H131, 6xHis-tagged (human, UniProt P12318 36-218, limits assumed).
T8 construct: Captured through its 6xHis tag
T8 sequence: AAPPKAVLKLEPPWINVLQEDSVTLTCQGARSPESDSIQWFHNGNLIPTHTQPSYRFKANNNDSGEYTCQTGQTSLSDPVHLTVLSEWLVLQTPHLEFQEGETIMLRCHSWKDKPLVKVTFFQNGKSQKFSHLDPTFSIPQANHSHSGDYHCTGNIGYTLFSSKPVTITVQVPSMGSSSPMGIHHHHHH
Kind of assay: Biacore SPR; His-tagged human FcγR captured on anti-6xHis antibody, DVD-Ig injected. The method, then:
as §1

For assay [6], the target named is T9, Recombinant human FcγRIIb, 6xHis-tagged (human, UniProt P31994 46-217, limits assumed).
T9 construct: Captured through its 6xHis tag; also called huFcRIIb
T9 sequence: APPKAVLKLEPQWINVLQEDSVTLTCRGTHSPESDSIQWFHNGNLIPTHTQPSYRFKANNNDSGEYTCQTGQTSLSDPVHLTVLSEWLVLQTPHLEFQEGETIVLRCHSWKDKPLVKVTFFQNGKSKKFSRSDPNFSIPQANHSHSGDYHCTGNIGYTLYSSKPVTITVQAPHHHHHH
Described as above. The procedure: as §1

Assay [7] has as its target T10, Recombinant human FcγRIIIa F158, 6xHis-tagged (human, UniProt P08637 17-208, limits assumed).
T10 construct: Captured through its 6xHis tag
The assay is described as above. The method, then: as §1

The target in assay [8] is T11, Recombinant human FcγRIIa R131, 6xHis-tagged (human, UniProt P12318 36-218, limits assumed).
T11 construct: Captured through its 6xHis tag
T11 sequence: T8 sequence with H132R
Described as above. The method, then:
as §1

The target in another assay is T12, Human PDGF-BB, soluble (human, UniProt P01127 82-190).
T12 construct: also called hPDGF-BB; soluble PDGF-BB
T12 sequence (P01127 82-190 limits assumed): as the sequence (P01127 82-190 limits assumed) above
As to the kind of experiment: SPR (Biacore), summary table. The method, then:
(§2) Unreacted moieties on the biosensor surface were blocked with ethanolamine. For kinetic analysis, rate equations derived from the 1:1 Langmuir binding model were fitted simultaneously to multiple antigen injections (using global fit analysis) with the use of Scrubber 2 (BioLogic Software), Biacore Biaevaluation 4.0.1 software or Biacore T100 Evaluation software. Purified antibodies or DVD-Ig molecules were diluted in running buffer for capture across goat anti-human Fc reaction surfaces. Antibodies or DVD-Ig molecules to be captured as a ligand (1 μg/ml) were injected over reaction matrices at a flow rate of 10 μl/minute. During the assay, all measurements were referenced against the capture surface alone (i.e., with no captured antibody or DVD-Ig molecule). […] The equilibrium dissociation constant KD (M) of the reaction between antibodies and the target antigen was then calculated from the kinetic rate constants by the following formula: KD=Koff/Kₒₙ. Binding was recorded as a function of time and kinetic rate constants were calculated. In this assay, on-rates as fast as 10⁶M⁻¹s⁻¹ and off-rates as slow as 10⁻⁶ s⁻¹ could be measured.

For a further assay, the target named is T13, Human VEGF-A 111 (human, UniProt P15692-10 27-137).
T13 construct: not used because the names differ; also called hVEGF111
T13 sequence (looked up): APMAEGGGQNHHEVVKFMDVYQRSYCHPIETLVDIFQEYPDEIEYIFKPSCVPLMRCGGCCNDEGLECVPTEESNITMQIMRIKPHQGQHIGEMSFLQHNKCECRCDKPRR
Kind of assay: SPR (Biacore), summary table. The procedure: as §2

Another assay addresses T14, Human VEGF-A 121 (human, UniProt P15692 207-395).
T14 construct: also called hVEGF121
T14 sequence: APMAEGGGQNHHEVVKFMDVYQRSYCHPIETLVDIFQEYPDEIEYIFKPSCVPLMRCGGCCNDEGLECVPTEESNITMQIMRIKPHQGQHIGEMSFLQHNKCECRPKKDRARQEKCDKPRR
Kind of assay: SPR (Biacore), summary table. The method, then: as §2

A further assay addresses T15, Human VEGF-A 165 (human, UniProt P15692 207-395).
T15 construct: also called hVEGF165
Kind of assay: SPR (Biacore), summary table. The method, then:
as §2

For another assay, the target named is T16, rat PDGF-B (PR-1645048) (rat, UniProt Q05028 74-182).
T16 construct: Lot 2235300; also called rat PDGF-BB; ratPDGF-BB
T16 sequence (Q05028 74-182 limits assumed): as the sequence (Q05028 74-182 limits assumed) above
Kind of assay: SPR (Biacore), DVD-Ig captured by anti-human Fc, antigen injected. The procedure:
as §2

T10 sequence (P08637 other isoform, or with tags, fused parts or gaps limits assumed): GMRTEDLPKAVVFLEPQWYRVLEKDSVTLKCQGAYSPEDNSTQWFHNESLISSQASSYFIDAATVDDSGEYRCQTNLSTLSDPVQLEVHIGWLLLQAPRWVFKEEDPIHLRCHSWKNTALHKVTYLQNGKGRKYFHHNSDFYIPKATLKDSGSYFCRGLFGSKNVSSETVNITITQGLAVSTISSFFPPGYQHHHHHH

B1: hu VEGF 9E10.1-GS-hu PDGF 33675 [hu IgG1/k] LALA H435A (PR-1610561) (bispecific antibody)
heavy: EIQLVQSGSELKKPGASVKVSCKASGYTFTNYGMYWVKQAPGQGLEYMGWIDTETGRPTYADDFKGRFVFSLDTSVSTAYLQISSLKAEDTAVYFCARWSGDTTGIRGPWFAYWGQGTLVTVSSGGGGSGGGGSEVTLRESGPALVKPTQTLTLTCTFSGFSLSTYGMGVGWIRQPPGKALEWLANIWWDDDKYYNPSLKNRLTISKDTSKNQVVLTMTNMDPVDTATYYCARIESSGPKYSFDYWGQGTMVTVSSASTKGPSVFPLAPSSKSTSGGTAALGCLVKDYFPEPVTVSWNSGALTSGVHTFPAVLQSSGLYSLSSVVTVPSSSLGTQTYICNVNHKPSNTKVDKKVEPKSCDKTHTCPPCPAPEAAGGPSVFLFPPKPKDTLMISRTPEVTCVVVDVSHEDPEVKFNWYVDGVEVHNAKTKPREEQYNSTYRVVSVLTVLHQDWLNGKEYKCKVSNKALPAPIEKTISKAKGQPREPQVYTLPPSREEMTKNQVSLTCLVKGFYPSDIAVEWESNGQPENNYKTTPPVLDSDGSFFLYSKLTVDKSRWQQGNVFSCSVMHEALHNAYTQKSLSLSPGK
light: DIRMTQSPSSLSASVGDRVTIECLASEDIYSDLAWYQQKPGKSPKLLIYNANGLQNGVPSRFSGSGSGTDYSLTISSLQPEDVATYFCQQYNYFPGTFGQGTKLEIKGGSGGGGSGGEIVLTQSPGTLSLSPGERATLSCRASSGSIWYSFVSWYQQKPGQAPRLLIYADDQRASGIPDRFSGSGSGTDFTLTISRLEPEDFAVYYCQSYGINIDVVFGGGTKVEIKRTVAAPSVFIFPPSDEQLKSGTASVVCLLNNFYPREAKVQWKVDNALQSGNSQESVTEQDSKDSTYSLSSTLTLSKADYEKHKVYACEVTHQGLSSPVTKSFNRGEC
In the case of B1, the “Potency IC50 (pM), Human PDGF-BB, cellular assay” value in assay [1] was 34 pM. In addition, in [2], the “Potency IC50 (pM), Human VEGF-A, cellular assay” value worked out at 145 pM.

B2: 9E10.1_GS_CL-33675 (PR-1610561), anti-VEGF-A/anti-PDGF-BB DVD-Ig, hu IgG1/k L234A L235A H435A (bispecific antibody)
heavy: B1 heavy
light: B1 light
notes: also called 9E10.1-GS-33675; hu VEGF 9E10.1-GS-hu PDGF 33675 [hu IgG1/k]; LALA H435A
Consider B2, for which the binding result with Recombinant rat FcRn was “no binding (tested: FcRn 2.7 to 6000 nM)”; in [5], “no binding (tested: DVD-Ig 31.25 to 4000 nM)”; in assay [6], “no binding (tested: DVD-Ig 31.25 to 4000 nM)”; in assay [7] it was “no binding (tested: DVD-Ig 31.25 to 4000 nM)”; in [8], “no binding (tested: DVD-Ig 31.25 to 4000 nM)”. The Kd in the assay with Rat PDGF-BB was 0.003 nM; with Rabbit PDGF-BB it was 0.003 nM; with Cynomolgus monkey VEGF-A, 0.065 nM; in assay [3] it was 0.0008 nM; with Mouse PDGF-BB, 0.0003 nM; in assay [4], 11000 nM.

B3: 9E10.1-GS-33675 anti-VEGF/anti-PDGF DVD-Ig molecule (PR-1610561) (bispecific antibody, human IgG1, kappa, L234A L235A)
heavy: B1 heavy
light: B1 light
notes: DVD-Ig: outer domain hBEW-9E10.1 (VEGF), inner domain CL-33675 (PDGF), linkers GS-H10 / GS-L10(dR); human IgG1 L234A, L235A, H435A / kappa; Lot 2213329; also called hu VEGF 9E10.1-GS-hu PDGF 33675 [hu IgG1/k]; LALA H435A
As for B3, the Kd with Human PDGF-BB, soluble is 0.005 nM; with Human VEGF-A 111, 0.29 nM; with Human VEGF-A 121 it was 0.23 nM; with Human VEGF-A 165 it was 0.065 nM; with rat PDGF-B (PR-1645048), ≤ 0.0052 nM. The same molecule yielded a koff with rat PDGF-B (PR-1645048) of 5.2e-05 s⁻¹. Also, the on-rate constant (kon) with rat PDGF-B (PR-1645048) was ≥ 1e+07 M⁻¹ s⁻¹.
